Experimental data: paper PMC5352752, “Discovery and characterization of an F420-dependent glucose-6-phosphate dehydrogenase (Rh-FGD1) from Rhodococcus jostii RHA1” (Applied Microbiology and Biotechnology, 2016)

Molecular target: the molecule itself
Assay: SEC; gel permeation analysis in solution, data not shown

B1: F420-dependent glucose-6-phosphate dehydrogenase Rh-FGD1 from Rhodococcus jostii RHA1 (enzyme, UniProt Q0RVH7 1-335, looked up)
chain: MVIKFGYKASAEQFGPRELVELGVLAEAHGMDSATVSDHFQPWRHEGGHAPFSLAWMTAVGERTSRLQLGTSVMTPTFRYNPAVVAQAFATMGCLYPGRIMLGVGTGEALNEIATGFAGEWPEFKERFARLREAVALMRELWLGDRVDFEGNYYKTVGASIYDVPEGGIPVYIAAGGPVVARYAGRSGDGFICTSGKGMELYTEKLMPAVAEGAEKADRDVAEIDKMIEIKISYDTDPELALENTRFWAPLSLTPEQKHSIDDPIEMERAADALPIEQVAKRWIVASDPDEAVAQIRPYLDAGLNHLVFHAPGHDQKRFLELFQRDLAPRLRGLA
notes: each monomer is comprised of residues 1-334; The native enzyme (tag cleaved) was used for crystallization; also called RHA1_RS43115; native Rh-FGD1; source: E. coli C41(DE3), purified (HisTrap, His-SUMO tag cleaved with SUMO protease, second HisTrap, Superdex 200); not shown: His6, N-terminal, cleaved; SUMO, N-terminal, cleaved
B1 was tested, and the “stoichiometry N” value was 2.
